From US20160185837A1, “GIP AND GLP-1 RECEPTOR DUAL-AGONISTS FOR THE TREATMENT OF DIABETES” (Medimmune Limited, priority 2013, published 2016)

Columns and labels:
Assay in all cases: cell-based or functional assay
rat GLP-1 receptor (rat) = rat GLP-1 receptor (rat) (UniProt P32301)
[1] = target: human GLP-1 receptor (human) (UniProt P43220)
[2] = target: human glucagon receptor (human) (UniProt P47871)
rat GIP receptor (rat) = target: T1, rat GIP receptor (rat) (UniProt P43219)
T1 sequence (looked up): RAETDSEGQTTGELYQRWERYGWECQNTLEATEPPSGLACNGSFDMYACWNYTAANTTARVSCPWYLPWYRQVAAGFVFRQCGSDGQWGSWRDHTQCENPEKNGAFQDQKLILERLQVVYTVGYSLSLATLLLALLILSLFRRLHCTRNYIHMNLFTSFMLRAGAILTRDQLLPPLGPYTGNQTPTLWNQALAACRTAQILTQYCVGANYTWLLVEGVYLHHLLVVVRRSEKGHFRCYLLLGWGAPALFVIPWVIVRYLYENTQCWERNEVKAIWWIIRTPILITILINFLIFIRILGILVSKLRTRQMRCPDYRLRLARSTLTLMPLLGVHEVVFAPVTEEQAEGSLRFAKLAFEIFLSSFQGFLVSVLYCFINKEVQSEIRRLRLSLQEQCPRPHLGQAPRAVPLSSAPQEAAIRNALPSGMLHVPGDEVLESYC

[3] = target: mouse GLP-1 receptor (mouse) (UniProt O35659)
[4] = target: T2, mouse GIP receptor (mouse) (UniProt Q0P543)
T2 sequence (looked up): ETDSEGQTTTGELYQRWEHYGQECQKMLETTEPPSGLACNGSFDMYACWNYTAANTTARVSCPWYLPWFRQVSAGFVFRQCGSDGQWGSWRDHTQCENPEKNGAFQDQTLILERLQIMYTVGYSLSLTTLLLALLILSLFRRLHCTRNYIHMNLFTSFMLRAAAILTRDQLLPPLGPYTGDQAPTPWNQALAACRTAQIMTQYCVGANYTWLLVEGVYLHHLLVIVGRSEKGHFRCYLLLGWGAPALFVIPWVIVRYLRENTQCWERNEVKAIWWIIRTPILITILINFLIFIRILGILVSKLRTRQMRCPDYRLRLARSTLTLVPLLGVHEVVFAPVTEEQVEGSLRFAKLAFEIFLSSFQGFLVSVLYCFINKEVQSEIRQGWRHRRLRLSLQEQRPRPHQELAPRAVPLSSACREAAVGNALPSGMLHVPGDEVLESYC

[5] = target: T3, human GIP receptor (human) (UniProt P48546)
T3 sequence (looked up): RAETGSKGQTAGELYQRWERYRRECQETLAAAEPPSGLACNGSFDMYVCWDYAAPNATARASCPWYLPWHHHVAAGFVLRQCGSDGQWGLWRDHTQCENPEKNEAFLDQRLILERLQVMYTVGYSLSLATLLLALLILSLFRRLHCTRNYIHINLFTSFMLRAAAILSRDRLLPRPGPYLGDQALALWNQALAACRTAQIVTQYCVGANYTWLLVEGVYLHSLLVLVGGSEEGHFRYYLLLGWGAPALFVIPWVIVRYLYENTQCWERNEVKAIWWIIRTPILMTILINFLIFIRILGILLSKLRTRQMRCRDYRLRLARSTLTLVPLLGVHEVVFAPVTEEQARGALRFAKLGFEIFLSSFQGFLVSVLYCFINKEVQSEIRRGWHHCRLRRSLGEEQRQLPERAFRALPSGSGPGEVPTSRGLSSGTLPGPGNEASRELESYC

Chain of mouse GLP-1 receptor (mouse) (O35659 22-463): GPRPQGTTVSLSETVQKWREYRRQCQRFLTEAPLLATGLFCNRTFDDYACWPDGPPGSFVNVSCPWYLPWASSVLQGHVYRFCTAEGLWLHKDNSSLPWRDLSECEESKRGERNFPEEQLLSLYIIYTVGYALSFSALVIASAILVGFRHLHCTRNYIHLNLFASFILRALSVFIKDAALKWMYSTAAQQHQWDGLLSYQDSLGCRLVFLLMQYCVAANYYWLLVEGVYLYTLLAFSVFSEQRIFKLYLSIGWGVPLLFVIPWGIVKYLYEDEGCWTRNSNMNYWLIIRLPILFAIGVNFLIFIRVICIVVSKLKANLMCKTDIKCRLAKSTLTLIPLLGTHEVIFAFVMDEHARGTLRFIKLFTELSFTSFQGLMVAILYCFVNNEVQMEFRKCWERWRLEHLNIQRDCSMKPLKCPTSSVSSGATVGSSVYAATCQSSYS
Chain of rat GLP-1 receptor (rat) (P32301 22-463): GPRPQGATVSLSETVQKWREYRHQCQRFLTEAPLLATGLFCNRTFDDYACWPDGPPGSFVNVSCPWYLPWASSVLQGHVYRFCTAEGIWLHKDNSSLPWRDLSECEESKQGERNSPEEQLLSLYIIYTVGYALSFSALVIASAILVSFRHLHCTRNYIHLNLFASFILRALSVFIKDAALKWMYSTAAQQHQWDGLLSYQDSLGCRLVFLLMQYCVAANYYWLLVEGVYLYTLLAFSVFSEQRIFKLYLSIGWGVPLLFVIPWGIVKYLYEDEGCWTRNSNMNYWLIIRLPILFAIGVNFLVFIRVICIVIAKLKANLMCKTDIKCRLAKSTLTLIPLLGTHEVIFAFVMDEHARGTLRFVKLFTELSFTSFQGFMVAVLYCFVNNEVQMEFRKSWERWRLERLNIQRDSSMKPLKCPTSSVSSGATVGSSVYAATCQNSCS
Chain of human GLP-1 receptor (human) (P43220 24-463): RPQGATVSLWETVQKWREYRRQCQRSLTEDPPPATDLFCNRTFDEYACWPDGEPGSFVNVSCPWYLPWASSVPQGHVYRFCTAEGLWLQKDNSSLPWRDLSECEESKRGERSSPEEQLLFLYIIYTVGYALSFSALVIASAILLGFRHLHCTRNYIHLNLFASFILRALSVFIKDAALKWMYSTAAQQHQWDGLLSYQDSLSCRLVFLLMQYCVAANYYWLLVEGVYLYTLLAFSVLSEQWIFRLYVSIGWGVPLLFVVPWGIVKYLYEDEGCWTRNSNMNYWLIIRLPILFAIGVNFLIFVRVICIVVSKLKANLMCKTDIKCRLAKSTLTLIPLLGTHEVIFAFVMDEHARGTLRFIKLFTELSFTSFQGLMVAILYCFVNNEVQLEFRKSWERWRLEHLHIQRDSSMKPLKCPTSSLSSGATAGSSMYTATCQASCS
Chain of human glucagon receptor (human) (P47871 26-477): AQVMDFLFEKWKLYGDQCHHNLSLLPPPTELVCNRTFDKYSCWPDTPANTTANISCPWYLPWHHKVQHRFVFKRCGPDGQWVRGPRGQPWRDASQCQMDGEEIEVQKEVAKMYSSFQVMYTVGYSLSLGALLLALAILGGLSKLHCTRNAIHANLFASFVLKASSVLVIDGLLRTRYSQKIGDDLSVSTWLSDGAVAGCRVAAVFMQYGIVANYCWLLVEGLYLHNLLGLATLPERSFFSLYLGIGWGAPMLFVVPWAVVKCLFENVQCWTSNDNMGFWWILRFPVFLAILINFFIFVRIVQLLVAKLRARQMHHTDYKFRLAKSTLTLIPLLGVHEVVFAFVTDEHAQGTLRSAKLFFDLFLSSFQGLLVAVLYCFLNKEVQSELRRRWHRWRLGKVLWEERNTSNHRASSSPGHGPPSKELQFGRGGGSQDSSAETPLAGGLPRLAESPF

Binder | cAMP EC50 (rat GLP-1 receptor (rat)) | cAMP EC50 [1] | cAMP EC50 [2] | cAMP EC50 (rat GIP receptor (rat)) | cAMP EC50 [3] | cAMP EC50 [4] | cAMP EC50 [5] | cAMP EC50, Batch 2 (rat GLP-1 receptor (rat)) | cAMP EC50, Batch 2 [1] | cAMP EC50, Batch 2 [2] | cAMP EC50, Batch 2 (rat GIP receptor (rat)) | cAMP EC50, Batch 2 [3] | cAMP EC50, Batch 2 [4] | cAMP EC50, Batch 2 [5] | cAMP EC50, hGIPr (C3) line [5]
IP389 (Fc fusion) YSEGTFISDYSIAMDKIHQQDFVNWLLAQKGGGGGSGGGGSGGGGSGGGGSGGGGSGGGGSGGGGSACPPC | 9.9 nM | 65 nM | > 269 nM | 0.0072 nM | 1300 nM | 0.017 nM | 0.0027 nM | – | – | – | – | – | – | – | –
IP392 (Fc fusion) YSEGTFISDYSIAMDKIHQQDFVNWLLAQKGAANDWKHNITQGGGGSGGGGSGGGGSGGGGSGGGGSGGGGSACPPC | 720 nM | 2800 nM | 530 nM | 0.0076 nM | > 17100 nM | 0.031 nM | 0.0026 nM | – | – | – | – | – | – | – | –
IP398 (Fc fusion) YSEGTFISDYSIAMDKIHQQDFVNWLLAQKGKKNDWKHNITQGGGGSGGGGSGGGGSGGGGSGGGGSGGGGSACPPC | 14000 nM | 9500 nM | 1600 nM | 0.0056 nM | > 17200 nM | 0.012 nM | 0.0037 nM | – | – | – | – | – | – | – | –
IP402 (Fc fusion) YSEGTFISDYSIAMDKIHQQDFVNWLLAQKGSGGGGSGGGGSGGGGSGGGGSGGGGSGGGGSGGGGSACPPC | 11 nM | 31 nM | 200 nM | 0.0068 nM | 850 nM | 0.033 nM | 0.038 nM | – | – | – | – | – | – | – | –
IP247 (Fc fusion) YSEGTFTSDYSKLLEKIHQQLFIEWLVKGPAAAGGSGSTASSGSGSATGGGGAATHTCPPCPAPEF | 11 nM | 63 nM | > 420 nM | 0.03 nM | 280 nM | 2.3 nM | 0.019 nM | – | – | – | – | – | – | – | –
IP209 (Fc fusion) YSEGTFTSDYSSYMERQAIDEFIAWLLKGGAAAGGSGSTASSGSGSATGGGGAATHTCPPCPAPEF | 0.075 nM | 0.23 nM | – | 0.22 nM | 0.84 nM | 4.9 nM | 0.058 nM | 0.091 nM | 0.2 nM | > 6270 nM | 1.3 nM | 1.6 nM | > 6300 nM | 0.028 nM | –
IP275 (Fc fusion) YSEGTFTSDYSKLLEKEAQRLFIEWLLKGPGGGGGSGGGGSGGGGSGGGGSATHTCPPC | 0.062 nM | 0.92 nM | 230 nM | 0.014 nM | 1.7 nM | 0.26 nM | 0.0087 nM | – | – | – | – | – | – | – | –
IP289 (Fc fusion) YSEGTFTSDYSKLLEKEAERLFIEWLLKGPGGGGGSGGGGSGGGGSGGGGSATHTCPPC | 0.23 nM | 3.4 nM | 240 nM | 0.02 nM | 6.8 nM | 0.44 nM | 0.01 nM | – | – | – | – | – | – | – | –
IP299 (Fc fusion) YSEGTFISDYSKLLEEEAVRDFVEWLKAGGGGGGGSGGGGSGGGGSGGGGSATHTCPPC | 19 nM | > 3640 nM | 53 nM | 0.11 nM | > 3640 nM | 210 nM | 0.021 nM | – | – | – | – | – | – | – | –
IP339 (Fc fusion) YSEGTFTSDYSKLLEKEAQRLFIEWLLAGGGGGGGSGGGGSGGGGSGGGGSGGGGSGGGGSA | 0.05 nM | 0.18 nM | 23 nM | 0.012 nM | 1.6 nM | 0.091 nM | 0.0098 nM | – | – | – | – | – | – | – | –
IP359 (Fc fusion) YSEGTFTSDYSKLLEEEAVRLFIEHLLAGGGGGGSGGGGSGGGGSGGGGSATHTCPPC | 0.04 nM | 0.061 nM | 43 nM | 0.039 nM | 0.2 nM | 8.3 nM | 0.011 nM | – | – | – | – | – | – | – | –
IP380 (Fc fusion) YSEGTFTSDYSKLLEEEAVRLFIEFLLAGGGGGGSGGGGSGGGGSGGGGSATHTCPPC | 0.031 nM | 0.11 nM | 25 nM | 0.06 nM | 1.2 nM | 6.6 nM | 0.0084 nM | – | – | – | – | – | – | – | –
IP381 (Fc fusion) YSEGTFTSDYSKLLEEEAVRLFIEYLLAGGGGGGSGGGGSGGGGSGGGGSATHTCPPC | 0.027 nM | 0.091 nM | 18 nM | 0.045 nM | 0.73 nM | 5.4 nM | 0.0099 nM | – | – | – | – | – | – | – | –
IP412 (Fc fusion) YSEGTFTSDYSKLLEEEANRLFIEWLLAGGGGGGSGGGGSGGGGSGGGGSATHTCPPC | 0.022 nM | 0.073 nM | > 440 nM | 0.018 nM | 1.2 nM | 0.4 nM | – | – | – | – | – | – | – | – | 1.3 nM
IP301 (Fc fusion) YSEGTFTSDVSSYLEREAIDEFIAWLLKGGAAAGGSGSTASSGSGSATGGGGAATHTCPPC | 0.058 nM | 0.31 nM | 12000 nM | 4.7 nM | 1.9 nM | 22 nM | 0.12 nM | – | – | – | – | – | – | – | –
IP306 (Fc fusion) YSEGTFTSDYSKLLERQAIDEFIAWLLKGGAAAGGSGSTASSGSGSATGGGGAATHTCPPC | 0.015 nM | 0.1 nM | 220 nM | 0.026 nM | 0.25 nM | 0.25 nM | 0.011 nM | – | – | – | – | – | – | – | –
IP307 (Fc fusion) YSEGTFTSDVSSYMERQAIDEFIAWLLKQGAAAGGSGSTASSGSGSATGGGGAATHTCPPC | 0.21 nM | 1.6 nM | 4100 nM | 5.2 nM | 6.5 nM | 31 nM | 0.091 nM | – | – | – | – | – | – | – | –
IP309 (Fc fusion) YSEGTFISDVSSYLERQAIDEFIAWLLKGGAAAGGSGSTASSGSGSATGGGGAATHTCPPC | 1.7 nM | 7.7 nM | 900 nM | 1.3 nM | 16 nM | 15 nM | 0.086 nM | – | – | – | – | – | – | – | –
IP310 (Fc fusion) YSEGTFTSDVSSYMERQAIDEFIAWLLKGKAAAGGSGSTASSGSGSATGGGGAATHTCPPC | 0.038 nM | 0.35 nM | 3700 nM | 5.2 nM | 1.4 nM | 31 nM | 0.15 nM | – | – | – | – | – | – | – | –
IP312 (Fc fusion) YSEGTFISDVSSYMERQAIDEFIAWLLKGGAAAGGSGSTASSGSGSATGGGGAATHTCPPC | 5.4 nM | > 5310 nM | > 5310 nM | 1.2 nM | > 1060 nM | 16 nM | 0.048 nM | – | – | – | – | – | – | – | –
